Measured values taken from patent US20060142189A1.

Tests used:
Experiment in all cases: cell-based or functional assay
[1] = molecular target: cell-surface L1-CAM of mouse cerebellar granular neurons (mouse) (UniProt P11627)
[2] = molecular target: myc-L1-CAM (myc-tagged rat L1-CAM variant expressed from pMyc-L1-CAM) (rat (variant of rat L1-CAM)) (UniProt Q05695)
[3] = molecular target: myc-L1-CAM-YF (rat (variant of rat L1-CAM)) (UniProt Q05695)
[4] = molecular target: myc-L1-CAM-YH (rat (variant of rat L1-CAM)) (UniProt Q05695)
myc-L1-CAM-YH (rat (variant of rat L1-CAM)), sequence (Q05695 other isoform, or with tags, fused parts or gaps mutant): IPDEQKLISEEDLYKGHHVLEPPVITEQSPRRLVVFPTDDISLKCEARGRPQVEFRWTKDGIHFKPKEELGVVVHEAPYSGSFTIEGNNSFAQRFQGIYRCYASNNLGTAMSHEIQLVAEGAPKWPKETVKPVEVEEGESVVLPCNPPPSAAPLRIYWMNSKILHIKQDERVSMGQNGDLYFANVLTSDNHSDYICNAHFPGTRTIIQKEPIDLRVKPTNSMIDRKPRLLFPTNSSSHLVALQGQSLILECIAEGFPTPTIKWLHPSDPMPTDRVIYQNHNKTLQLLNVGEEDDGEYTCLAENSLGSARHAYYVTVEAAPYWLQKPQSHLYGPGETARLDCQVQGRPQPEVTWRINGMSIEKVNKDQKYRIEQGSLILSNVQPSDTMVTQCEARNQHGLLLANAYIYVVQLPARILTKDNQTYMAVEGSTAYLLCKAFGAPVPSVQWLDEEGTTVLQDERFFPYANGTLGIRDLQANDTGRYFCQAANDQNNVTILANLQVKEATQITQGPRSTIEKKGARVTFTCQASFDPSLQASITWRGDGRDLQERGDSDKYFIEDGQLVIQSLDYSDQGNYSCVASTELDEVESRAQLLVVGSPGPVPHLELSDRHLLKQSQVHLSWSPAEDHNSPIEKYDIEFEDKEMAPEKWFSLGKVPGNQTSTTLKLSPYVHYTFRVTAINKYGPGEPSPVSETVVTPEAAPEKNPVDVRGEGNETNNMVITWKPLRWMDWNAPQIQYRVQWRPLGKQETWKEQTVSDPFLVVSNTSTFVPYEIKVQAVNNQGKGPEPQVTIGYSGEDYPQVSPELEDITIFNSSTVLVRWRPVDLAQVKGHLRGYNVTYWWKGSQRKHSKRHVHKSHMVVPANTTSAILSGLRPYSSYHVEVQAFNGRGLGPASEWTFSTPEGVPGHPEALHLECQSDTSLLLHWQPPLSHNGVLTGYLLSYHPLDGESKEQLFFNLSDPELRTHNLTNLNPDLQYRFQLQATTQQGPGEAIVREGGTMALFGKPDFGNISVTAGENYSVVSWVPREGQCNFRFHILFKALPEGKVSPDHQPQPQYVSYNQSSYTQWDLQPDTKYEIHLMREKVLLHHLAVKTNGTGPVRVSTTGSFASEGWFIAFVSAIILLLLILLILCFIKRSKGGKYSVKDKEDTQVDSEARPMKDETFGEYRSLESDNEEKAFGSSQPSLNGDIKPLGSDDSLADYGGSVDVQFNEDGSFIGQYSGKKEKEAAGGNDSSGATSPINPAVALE

myc-L1-CAM (myc-tagged rat L1-CAM variant expressed from pMyc-L1-CAM) (rat (variant of rat L1-CAM)), sequence (Q05695 other isoform, or with tags, fused parts or gaps mutant limits assumed): as the sequence (Q05695 other isoform, or with tags, fused parts or gaps mutant) above
cell-surface L1-CAM of mouse cerebellar granular neurons (mouse), sequence (P11627 20-1260): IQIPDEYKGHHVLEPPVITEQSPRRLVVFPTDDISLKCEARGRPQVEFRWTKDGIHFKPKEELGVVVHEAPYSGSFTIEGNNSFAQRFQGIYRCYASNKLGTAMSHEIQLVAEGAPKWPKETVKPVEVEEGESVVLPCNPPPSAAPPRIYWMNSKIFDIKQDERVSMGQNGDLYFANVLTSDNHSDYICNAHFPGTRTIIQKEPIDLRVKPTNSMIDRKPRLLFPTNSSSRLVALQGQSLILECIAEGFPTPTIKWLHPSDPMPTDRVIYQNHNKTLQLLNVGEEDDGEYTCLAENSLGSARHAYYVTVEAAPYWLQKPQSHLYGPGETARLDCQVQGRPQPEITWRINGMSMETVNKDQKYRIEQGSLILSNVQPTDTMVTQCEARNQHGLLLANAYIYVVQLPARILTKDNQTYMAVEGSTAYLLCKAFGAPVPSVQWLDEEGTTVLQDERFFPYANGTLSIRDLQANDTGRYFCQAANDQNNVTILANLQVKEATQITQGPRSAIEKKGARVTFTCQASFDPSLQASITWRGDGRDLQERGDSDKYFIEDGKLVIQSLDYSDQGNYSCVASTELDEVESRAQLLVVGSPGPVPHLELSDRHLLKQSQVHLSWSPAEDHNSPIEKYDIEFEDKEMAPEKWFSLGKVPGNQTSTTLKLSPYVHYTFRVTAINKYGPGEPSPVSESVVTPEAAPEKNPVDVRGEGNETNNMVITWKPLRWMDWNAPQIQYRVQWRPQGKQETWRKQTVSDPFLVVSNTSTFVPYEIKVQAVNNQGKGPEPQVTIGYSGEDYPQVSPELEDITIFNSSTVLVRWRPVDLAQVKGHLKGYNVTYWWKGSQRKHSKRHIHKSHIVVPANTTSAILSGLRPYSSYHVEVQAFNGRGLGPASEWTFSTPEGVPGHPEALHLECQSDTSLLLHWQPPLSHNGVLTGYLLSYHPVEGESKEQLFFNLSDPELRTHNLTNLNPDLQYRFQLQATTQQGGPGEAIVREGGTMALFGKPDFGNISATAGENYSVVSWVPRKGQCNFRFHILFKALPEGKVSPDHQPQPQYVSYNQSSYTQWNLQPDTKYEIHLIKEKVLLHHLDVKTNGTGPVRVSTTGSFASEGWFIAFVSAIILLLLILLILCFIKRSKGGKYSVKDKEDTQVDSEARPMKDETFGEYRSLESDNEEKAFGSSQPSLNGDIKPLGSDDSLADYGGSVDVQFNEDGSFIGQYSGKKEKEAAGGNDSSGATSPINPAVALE
myc-L1-CAM-YF (rat (variant of rat L1-CAM)), sequence (Q05695 other isoform, or with tags, fused parts or gaps mutant): as the sequence (Q05695 other isoform, or with tags, fused parts or gaps mutant) above

Substance | neurite extension of mouse cerebellar granular neurons on Ng-CAM after 24 h, with AP-YF peptide (30 µg/ml) [1] [µm] | neurite extension of mouse cerebellar granular neurons on Ng-CAM after 24 h, with control AP-Scramble peptide [1] [µm] | neurite extension on Ng-CAM with AP-YF above the level with control peptide [1] [%] | % of trials with retrograde movement of L1-CAM-bound beads (wild-type, untreated ND-7 cells) [2] [%] | % of trials with retrograde transport of 9E10-coated beads (wild-type L1-CAM) [2] [%] | % of trials with retrograde transport of L1-CAM-bound beads after NGF treatment (100 ng/mL, 1 hour) [2] [%] | % of trials with stationary behavior of L1-CAM-bound beads (wild-type, untreated ND-7 cells) [2] [%] | % of trials with stationary behavior of L1-CAM-bound beads after NGF treatment (100 ng/mL, 1 hour) [2] [%] | % of trials with retrograde movement of L1-CAM-bound beads [3] [%] | % of trials with stationary behavior of L1-CAM-bound beads [3] [%] | % of trials with retrograde movement of L1-CAM-bound beads [4] [%] | % of trials with stationary behavior of L1-CAM-bound beads [4] [%]
chick Ng-CAM (chick homolog of L1-CAM) (from UniProt Q03696 21-1266) (receptor) | 32 | 21 | 55 | – | – | – | – | – | – | – | – | –
ankyrin B (endogenous in ND-7 cells) | – | – | – | 61.9 | 68.9 | 100 | 28.6 | 18.2 | 37.5 | 62.5 | 92.9 | 0
